In paper PMC8967028:

Biological target: SARS-CoV-2 Wuhan spike (S) receptor binding domain (SARS-CoV-2)
Assay: SPR; Biacore T200; […], single cycle kinetics, […]; 25°C; PBS, 0.05% Tween 20, 3.4 mM EDTA; 1:1 binding model; triplicate; […]

Substance | koff
VHH-72-Fc L97W (Fc fusion) | 0.0018 s⁻¹
VHH-72-Fc S56M,L97W (Fc fusion) | 0.00044 s⁻¹
VHH-72-Fc S56M (Fc fusion) | 0.0031 s⁻¹
VHH-72-Fc T99V (Fc fusion) | 0.00072 s⁻¹
VHH-72-Fc S56M,T99V (Fc fusion) | 0.00041 s⁻¹
parental VHH-72-Fc (Fc fusion) | 0.0091 s⁻¹
VHH-72-Fc L97W,T99V (Fc fusion) | 0.00035 s⁻¹
VHH-72-Fc S56M,L97W,T99V (Fc fusion) | 0.00028 s⁻¹
